Data set [1] deals with T1, Peptide 9.
T1 chain: VPPGEDSK

In data set [2] the target is T2, Peptide 22.
T2 chain: KIAGYHLEL

The target in data set [3] is T3, Peptide 12.
T3 chain: ARPAK

Data set [4] concerns the target T4, Peptide 14.
T4 chain: RHPKYKTEL

The target in data set [5] is T5, Peptide 5.
T5 chain: RPGFSPFR

Data set [6] addresses T6, Peptide 11.
T6 chain: RGPFPI

The target in data set [7] is T7, Peptide 15.
T7 chain: GVPKTHLEL

Data set [8] deals with T8, Peptide 10.
T8 chain: VEPIPY

Data set [9] addresses T9, Peptide 16.
T9 chain: KGPPAALTL

In data set [10] the target is T10, Peptide 18.
T10 chain: FLREPVIFL

Data set [11] has as its target Peptide 1.
In data set [12] the target is T11, Peptide 8.
T11 chain: VPPGEDSK

The target in data set [13] is T12, Peptide 13.
T12 chain: PNPNQGNFI

The target in data set [14] is T13, Peptide 2.
T13 chain: RPPGF

The target of data set [15] is T14, Peptide 19.
T14 chain: GIRPYEILA

B1: prolyl-tripeptidyl peptidase A from P. gingivalis (protein)
chain: QSPETSGKEFTLEQLMPGGKEFYNFYPEYVVGLQWMGDNYVFIEGDDLVFNKANGKSAQTTRFSAADLNALMPEGCKFQTTDAFPSFRTLDAGRGLVVLFTQGGLVGFDMLARKVTYLFDTNEETASLDFSPVGDRVAYVRNHNLYIARGGKLGEGMSRAIAVTIDGTETLVYGQAVHQREFGIEKGTFWSPKGSCLAFYRMDQSMVKPTPIVDYHPLEAESKPLYYPMAGTPSHHVTVGIYHLATGKTVYLQTGEPKEKFLTNLSWSPDENILYVAEVNRAQNECKVNAYDAETGRFVRTLFVETDKHYVEPLHPLTFLPGSNNQFIWQSRRDGWNHLYLYDTTGRLIRQVTKGEWEVTNFAGFDPKGTRLYFESTEASPLERHFYCIDIKGGKTKDLTPESGMHRTQLSPDGSAIIDIFQSPTVPRKVTVTNIGKGSHTLLEAKNPDTGYAMPEIRTGTIMAADGQTPLYYKLTMPLHFDPAKKYPVIVYVYGGPHAQLVTKTWRSSVGGWDIYMAQKGYAVFTVDSRGSANRGAAFEQVIHRRLGQTEMADQMCGVDFLKSQSWVDADRIGVHGWSYGGFMTTNLMLTHGDVFKVGVAGGPVIDWNRYEIMYGERYFDAPQENPEGYDAANLLKRAGDLKGRLMLIHGAIDPVVVWQHSLLFLDACVKARTYPDYYVYPSHEHNVMGPDRVHLYETITRYFTDHL
Turning to B1, the “Cleavage site (no ↓ printed: not cleaved)” value in [1] is “Ac-Val-Pro-Pro-Gly-Glu-Asp-Ser-Lys”; in [2], “H-Lys-Ile-Ala-Gly-Tyr-His-Leu-Glu-Leu”; in [5] it was “H-Arg-Pro-Hyp-Gly-Phe-Ser-Pro-Phe-Arg”; in data set [9], “H-Lys-Gly-Pro-Pro-Ala-Ala-Leu-Thr-Leu”; in data set [10], “H-Phe-Leu-Arg-Glu-Pro-Val-Ile-Phe-Leu”; in data set [15] it was “H-Gly-Ile-Arg-Pro-Tyr-Glu-Ile-Leu-Ala”. Further, the Cleavage site entry in data set [3] is given as “H-Ala-Arg-Pro-↓-Ala-D-Lys-amide”; in data set [4], “H-Arg-His-Pro-↓-Lys-Tyr-Lys-Thr-Glu-Leu”; in data set [6], “H-Arg-Gly-Pro-↓-Phe-Pro-Ile”; in data set [7], “H-Gly-Val-Pro-↓-Lys-Thr-His-Leu-Glu-Leu”; in data set [8], “H-Val-Glu-Pro-↓-Ile-Pro-Tyr”; in [11], “H-Arg-Pro-Pro-↓-Gly-Phe-Ser-Pro-Phe-Arg”. The Cleavage site result was “H-Val-Pro-Pro-↓-Gly-Glu-Asp-Ser-Lys” in [12], “H-Pro-Asn-Pro-↓-Asn-Gln-Gly-Asn-Phe-Ile” in data set [13] and “H-Arg-Pro-Pro-↓-Gly-Phe” in data set [14].

The values are drawn from patent publication US6875851.
